Data reported in article PMC2139940 (The Journal of Cell Biology, 1997).

T1: GST fusion protein with α catenin (mouse, UniProt P26231 1-906)
T1 sequence (looked up): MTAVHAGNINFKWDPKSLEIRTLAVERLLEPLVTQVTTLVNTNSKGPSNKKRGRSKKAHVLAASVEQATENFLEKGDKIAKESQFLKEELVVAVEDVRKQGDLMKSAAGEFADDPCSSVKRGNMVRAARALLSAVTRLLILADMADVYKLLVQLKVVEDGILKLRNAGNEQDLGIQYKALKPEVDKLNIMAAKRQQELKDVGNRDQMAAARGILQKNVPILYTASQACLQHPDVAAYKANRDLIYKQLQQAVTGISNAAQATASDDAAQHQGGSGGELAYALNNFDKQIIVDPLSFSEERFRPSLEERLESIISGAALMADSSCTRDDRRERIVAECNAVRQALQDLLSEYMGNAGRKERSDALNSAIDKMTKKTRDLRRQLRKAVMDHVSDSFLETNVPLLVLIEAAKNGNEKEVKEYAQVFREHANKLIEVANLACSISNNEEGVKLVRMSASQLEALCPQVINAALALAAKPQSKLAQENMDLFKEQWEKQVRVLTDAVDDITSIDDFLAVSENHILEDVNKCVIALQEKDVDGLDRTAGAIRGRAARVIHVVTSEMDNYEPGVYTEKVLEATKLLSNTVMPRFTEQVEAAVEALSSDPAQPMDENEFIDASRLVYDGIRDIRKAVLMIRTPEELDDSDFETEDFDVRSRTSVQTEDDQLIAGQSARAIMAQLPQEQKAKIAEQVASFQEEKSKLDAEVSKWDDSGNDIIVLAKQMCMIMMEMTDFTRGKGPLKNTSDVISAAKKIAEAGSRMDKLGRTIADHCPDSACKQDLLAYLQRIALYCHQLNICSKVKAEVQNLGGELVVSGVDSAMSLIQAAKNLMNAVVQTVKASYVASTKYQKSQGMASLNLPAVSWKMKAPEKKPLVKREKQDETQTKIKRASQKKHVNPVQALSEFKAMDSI

B1: recombinant amino-terminal half dlg-like domain of ZO-1 (N-ZO-1; 1–862 aa) produced in Sf9 cells (domain or fragment, mouse, UniProt P39447 1-862, looked up)
chain: MSARAAAAKSTAMEETAIWEQHTVTLHRAPGFGFGIAISGGRDNPHFQSGETSIVISDVLKGGPAEGQLQENDRVAMVNGVSMDNVEHAFAVQQLRKSGKNAKITIRRKKKVQIPVSHPDPEPVSDNEDDSYDEEVHDPRAGRGALANRRSEKSWARDRSASRERSLSPRSDRRSVASSQPAKPTKVTLVKSRKNEEYGLRLASHIFVKEISQDSLAARDGNIQEGDVVLKINGTVTENMSLTDAKTLIERSKGKLKMVVQRDERATLLNVPDLSDSIHSANASERDDISEIQSLASDHSGRSHDRPPRRSQSRSPDQRSEPSDHSTQSPQQPSNGSLRSREEERMSKPGAISTPVKHVDDHPPKAVEEVTVEKNEKQTPTLPEPKPVYAQVGQPDVDLPVSPSDGALPNSAHEDGILRPSMKLVKFRKGDSVGLRLAGGNDVGIFVAGVLEDSPAAKEGLEEGDQILRVNNVDFTNIIREEAVLFLLDLPKGEEVTILAQKKKDVYRRIVESDVGDSFYIRTHFEYEKESPYGLSFNKGEVFRVVDTLYNGKLGSWLAIRIGKNHKEVERGIIPNKNRAEQLASVQYTLPKTAGGDRADFWRFRGLRSSKRNLRKSREDLSAQPVQTKFPAYERVVLREAGFLRPVTIFGPIADVAREKLAREEPDIYQIAKSEPRDAGTDHRSSGIIRLHTIKQIIDQDKHALLDVTPNAVDRLNYAQWYPIVVFLNPDSKQGVKTMRMRLCPESRKSARKLYERSHKLRKNNHHLFTTTINLNSMNDGWYGALKEAIQQQQNQLVWVSEGKADGATSDDLDLHDDRLSYLSAPGSEYSMYSTDSRHTSDYEDTDTEGGAYTDQELDETL
B2: recombinant carboxyl-terminal half of ZO-1 (C-ZO-1; 863–1745 aa) produced in Sf9 cells (domain or fragment)
chain: NDEVGTPPESAITRSSEPVREDSSGMHHENQTYPPYSPQAQPQAIHRIDSPGLKPASQQKAEASSPVPYLSPETTPASSASAVNHNVSVTNVSLEEPAPAPPTSHASQPGCLGAPSAEAAHVVLRGEGPPLPPHADPAKVYRKEPYSEEMMRQNHILKQPALGHPGQRPDKEPNLAYEPQLPYIEKQASRDLEQPSYRYEVSSYTDQFSRNYDHRLRFEDRIPTYEDQWSYYDDKQPYQPRPFENQHPRDLDSRQHPEEASERGYFQRFEEPAPLSYDSRTRYEQLPRTSTLRHEEQPAPAYEVHNRYRPEAQPYSSTGPKSSEPKQYFDQYPRSYEQVPPPGFTSKTGHYEPLHGAAVVPPLIPSSQQKPEVLPSATKPQPPPPTLTEEEEDPAMKPQSVLTRVKMFENKRSASLENKKDVNDTASFKPPEVASKPPGASLAGPKPVPQSQFSEHDKTLYRLPEPQKPQVKPPEDIVRSNHYDPEEDEEYYRKQLSYFDRRSFESKPSAHLPAGHHSEPAKPVHSQSQPNFSSYSSKGKPETDAVDRSFSEKRYDPAQATPPPPPLPSQYSQPAPPLSSSSLHIHSKGAQGEGNSVSLDFQNSYMSKPDPPPSQSKPATFRPPTREDPPQTFYPQKSFPDKAPVNGAEQTQKTITPVYNRFTPKPYTSSARPFERKFESPKFNHNLLPSETVHKPELSSKTPTSPKTLMKAHSSTQPPEFDSGVETFSVHTDKPKYQMNNISTMPKAVPVSPSAVEEDEDEDGHTVVATARGIFNSNGGVLSSIETGVSIIIPQGAIPEGIEQEIYFKVCRDNSILPPLDKEKGETLLSPLVMCGPHGLKFLKPVELRLPHCDPKTWQNKCLPGDPNYLVGANCVSVLIDHF

What was measured:
[1] = biological target: T1, GST fusion protein with α catenin; experiment: pull-down
[2] = biological target: actin filaments (actin purified from rabbit skeletal muscle, polymerized) (rabbit, UniProt P68135 1-377); experiment: co-sedimentation

Row | Binder | Kd [1] [nM] | Kd [2] [nM]
1 | B1 | ~0.5 | 
2 | B2 |  | ~10
